From patent US20230242902A1, “A HIGHLY ERROR-PRONE […] R[…] FOR TARGETED CONTINUOUS EVOLUTION IN VIVO” (The Regents of the University of California, priority 2017, published 2023) come the findings set out here.

Numbering of substitutions follows the chain as printed. In names and notes the source's numbering stands.

B1: D333T: TP-DNAP1 variant (protein)
chain: MDYKDKALNDLRNVYADFDSLPLDFRQILIKDRATLLQKEDVEKKILERQEDAKKYAEYLKQSEIPERISLPNIKRHKGVSISFEETSEDMVLEPRPFIFDGLNIRCFRRETIFSLKNKILNMVKESSSFKNVSRQSVSFMYFKIFNKGKVIASTKSVNIYEDKIDERLEDLCNNFDDVLKKIIDVTYGYESLFVSETYSYVIFYAKSIYFPQPRCVNNWGNNIPNILTFDSFKLFTANKNNVSCIKQCSRFLWQKDFNTLEEMIEYKNGNICIVTPQLHINDVRDIKSFNDIRLYSESPIKTFSVIDNTITYLFYFKEHLGVIFNITKSRHTRRVTKFSPLSKFSDVKNITVCFDIESYFDPEKESNQVNIPFICCASIIYNKVIGNIVDFEGRDCVAQMIEYVVDICGELNISSVELIAHNGGGYDFHYILSSMYNPAAIKNILIRNNSFISFNFAHDGVKFSVKDSYSFLLCSLANASKAFLNEETFKKTDFPHHDLKTADDLYKVYKEWSSVNTEINHVVEKEKLLITSEHIVNFTKNDKSKTLIEWSKDYCRNDVLVLSKVWLEFKNAVEDIFNCELVDQTMTLAGLSYKLFQANMPFDVELRHPNKEDYFNMREALIGGRCISVNGIYKDVLCLDVKSLYPASMAFYDQPYGSFKRVSSRPKDELGIYYVRVTPNRNNKSNFFPIRSHNKITYNNFEESTYIAWYTNVDIDIGLSEGHNIEYIPFDSYGNIGYSWSKKGKIFEKYIKDVLYKLKIKYEKQNNKVKRNVIKIIMNSLWGKFAQKWVNFEYFIKSEDDIDFESEEAYKIWDTDFMLIKKIKESTYSSKPIQNGVFTLSWARYHMKSIWDAGAKEGAECIYSDTDSIFVHKEHFKKNAKFMLNGLKVPIIGSEVGQLELECEFDKLLCAGKKQYMGFYTYFQDGKPCIKEKKRFKGIPSNYIIPELYAHLLSGADKEAKIQFLKFRREWGSVKGYIENKTVKAT
B2: D407G: TP-DNAP1 variant (protein)
chain: B1 chain with T333D, D407G
B3: G410I: TP-DNAP1 variant (protein)
chain: B1 chain with T333D, G410I
B4: R395P: TP-DNAP1 variant (protein)
chain: B1 chain with T333D, R395P
B5: D407M: TP-DNAP1 variant (protein)
chain: B1 chain with T333D, D407M
B6: I287M: TP-DNAP1 variant (protein, listed as Kluyveromyces lactis)
chain: B1 chain with I287M, T333D
B7: V385W: TP-DNAP1 variant (protein)
chain: B1 chain with T333D, V385W
B8: G410R: TP-DNAP1 variant (protein)
chain: B1 chain with T333D, G410R
B9: D407T: TP-DNAP1 variant (protein)
chain: B1 chain with T333D, D407T
B10: G387H: TP-DNAP1 variant (protein)
chain: B1 chain with T333D, G387H
B11: D407C: TP-DNAP1 variant (protein)
chain: B1 chain with T333D, D407C
B12: V406Q: TP-DNAP1 variant (protein)
chain: B1 chain with T333D, V406Q
B13: D333V: TP-DNAP1 variant (protein)
chain: B1 chain with T333V
B14: Y382A: TP-DNAP1 variant (protein)
chain: B1 chain with T333D, Y382A
B15: D407V, S415T: TP-DNAP1 variant (protein)
chain: B1 chain with T333D, D407V, S415T
B16: D407A: TP-DNAP1 variant (protein)
chain: B1 chain with T333D, D407A
B17: V406C: TP-DNAP1 variant (protein)
chain: B1 chain with T333D, V406C
B18: D407H: TP-DNAP1 variant (protein)
chain: B1 chain with T333D, D407H
B19: G410H: TP-DNAP1 variant (protein, listed as Kluyveromyces lactis)
chain: B1 chain with T333D, G410H
B20: G410E: TP-DNAP1 variant (protein)
chain: B1 chain with T333D, G410E
B21: I372C: TP-DNAP1 variant (protein)
chain: B1 chain with T333D, I372C
B22: D407F: TP-DNAP1 variant (protein)
chain: B1 chain with T333D, D407F
B23: G410Q: TP-DNAP1 variant (protein)
chain: B1 chain with T333D, G410Q
B24: K365N: TP-DNAP1 variant (protein)
chain: B1 chain with T333D, K365N
B25: Y382V: TP-DNAP1 variant (protein)
chain: B1 chain with T333D, Y382V

This test deals with p1. Nature of the test: p1 copy number by p1-encoded mKate2 fluorescence. The settings on record: OR-Y24, measured in triplicate. It is filed as cell-based, S. cerevisiae. A digest of the protocol: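 Yeast OR-Y24 strains carrying TP-DNAP1 variants were grown to saturation from a 1:10,000 dilution, and p1-encoded mKate2 fluorescence was measured by flow cytometry (ex/em 561/620 nm). Values were converted to copy number via a linear calibration against qPCR of p1-encoded LEU2 versus genomic LEU3, or by plate-reader OD600-normalized fluorescence relative to w.t. TP-DNAP1.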
As for B1, the “Mean fold-increase over w.t. (p1 copy number)” value (from here on “Mean fold-increase”) was 2.41 fold.
With B2, the “Mean fold-increase” value stood at 2.53 fold.
Then B3, with 2.57 fold.
As for B4, the “Mean fold-increase” value is recorded as 1.91 fold.
In the case of B5, the “Mean fold-increase” value turned out to be 2.71 fold.
Consider B6, for which the “Mean fold-increase” value was 2.39 fold.
Regarding B7, the “Mean fold-increase” value is given as 1.41 fold.
The value for B8 was 2.87 fold.
For the molecule B9, the “Mean fold-increase” value is 3.95 fold.
For B10, the “Mean fold-increase” value is listed as 1.57 fold.
The value for B11 was 2.26 fold.
In the case of B12, the “Mean fold-increase” value turned out to be 2.16 fold.
Regarding B13, the “Mean fold-increase” value is 2.18 fold.
As for B14, the “Mean fold-increase” value was 1.6 fold.
With B15, the “Mean fold-increase” value came to 1.95 fold.
Take B16: the “Mean fold-increase” value came out at 2.25 fold.
Then B17, with 2.34 fold; and B18, with 2.57 fold; and B19, with 2.19 fold.
For B20, the “Mean fold-increase” value was found to be 2.37 fold.
As for B21, the “Mean fold-increase” value was 1.73 fold.
Turning to B22, the “Mean fold-increase” value is recorded as 2.28 fold.
For B23, the “Mean fold-increase” value is listed as 2.2 fold.
Take B24: the “Mean fold-increase” value is listed as 1.89 fold.
For the molecule B25, the “Mean fold-increase” value was determined as 1.62 fold.
